Results published in US7481993B2, “Chelators for radioactively labeled conjugates comprising a stabilizing sidechain” (Schering AG, priority 2005, dated 2009).
Where “and” joins values, the source holds several entries; their conditions need not be identical. Identical values can stand only once. * marks the point of attachment. Bz = O=C(c1ccccc1)*

Assays:
[1] = Cysteine challenge stability of ^99mTc chelator peptides; format: physicochemical; settings: N1-N2-Cys triamide thiol chelators; for % Peptide Complexed to ^99mTc Initial: 150 μg cysteine, room temperature, Initial (within 5 minutes); for % Peptide Complexed to ^99mTc 2 h / % Peptide Complexed to ^99mTc 4 h / % Peptide Complexed to ^99mTc 6 h / % Peptide Complexed to ^99mTc 8 h / % Peptide Complexed to ^99mTc 10 h / % Peptide Complexed to ^99mTc 12 h: cysteine challenge
Procedure: For the ^99mTc radiolabeling, a peptide as the TFA salt was dissolved in saline at 1 mg/mL and 100 μg (100 μL) was added to a ^99mTc placebo vial. The vial was reconstituted with 0.9 mL technetium ^99mTc sodium pertechnetate containing approximately 20 mCi and saline such that the final preparation volume was 1.1 mL. The vial was heated in a boiling water bath for 10 minutes and cooled at room temperature for 10 minutes.
(§1) The radiochemical purity (RCP) of the ^99mTc or ^188Re peptides was measured by gradient reversed phase HPLC using a Eurosphere-100 C18 HPLC column and 0.1% TFA mobile phases moderated with acetonitrile. Radioactive components were detected in the HPLC system using an in-line radiometric detector. Under the gradient conditions employed radiolabeled impurities (for example: ^99mTc glucoheptonate, ^99mTc edetate, and ^99mTc pertechnetate) eluted early (between 1 and 4 minutes), while the radiolabeled peptides eluted much later (between 8 and 20 minutes). In general, two isomeric radiometal complexes were observed, and the HPLC RCP was measured as the sum of the percent areas of the peaks corresponding to the two complexes. Radiochemical purity results for each of compounds are summarized in the examples that follow.
(§2) To ^99mTc radiolabelled peptide preparations described in Example 3 was added 150 μg of cysteine (approximately a 7-fold molar excess over peptide), and the preparations were stored at room temperature and monitored by HPLC for up to 12 hours. The amount of ^99mTc cysteine formed over time was noted. The initial HPLC analysis was started within 5 minutes of adding cysteine. In all cysteine challenge studies, a chelator compound containing a stabilizing sidechain was screened vs. the corresponding control chelator compound containing no sidechain. The relative amount of ^99mTc cysteine formed over time correlates inversely with the stability of the chelator (ie. less ^99mTc cysteine indicates higher chelator stability).
Several model chelator peptides were prepared with an N^1—N^2-Cys (N^1, N^2=independently any amino acid) amino acid sequence capable of complexing technetium as a triamide thiol chelator. Various stabilizing sidechains were substituted into the N^1—N^2-Cys chelator in two positions R1 and R2 as depicted in FIG. 4. The compounds were screened in the cysteine challenge experiment described in Example 4. Several experiments were conducted where 1-2 chelators were compared directly to a control chelator containing no stabilizing sidechain (compound GoC1 was also analyzed alone in a further study). Results in Table 5 represent % Peptide complexed to ^99mTc (ie. 100%−the amount of ^99mTc cysteine) vs. time.
Several model chelator peptides were prepared with an (β)Dap-N^2-Cys (N^2=any amino acid) amino acid sequence capable of complexing technetium as an amine diamide thiol chelator. This chelator is the chelator in the somatostatin peptides that were evaluated in Examples 5 and 6. Various stabilizing sidechains were substituted into the (β)Dap-N^2-Cys chelator in two positions R3 and R4 as depicted in FIG. 5. The compounds were screened in the cysteine challenge experiment described in Example 4. Several experiments were conducted where 1-2 chelators were compared directly to a control chelator containing no stabilizing sidechain. Results in Table 6 are the same as described in Example 7.
Two model chelator peptides were prepared with a ma-N^1—N^2 (Ma=mercaptoacetyl; N^1, N^2=independently any amino acid) amino acid sequence capable of complexing technetium as a triamide thiol chelator. This chelator has the thiol donor group at the N-terminus of the peptide. A stabilizing sidechain was substituted into the ma-N^1—N^2 chelator in position R5 as depicted in FIG. 6. The compounds were radiolabeled according to Example 3 with the exception that additional NaOH was added to bring the pH of the preparation up to pH 8.5. […]

[2] = Cysteine challenge stability of ^188Re chelator peptides; format: physicochemical; settings: radiolabeled with ^188Re
Procedure: For the ^188Re radiolabeling, a peptide as the TFA salt was dissolved in saline at 1 mg/mL and 100 μg (100 μL) was added to a ^188Re placebo vial. To the vial was added 100 μg stannous chloride dihydrate. The vial was reconstituted with 0.9 mL rhenium ^188Re sodium perrhenate containing approximately 20 mCi and saline such that the final preparation volume was 1.5 mL. The vial was heated in a boiling water bath for 15 minutes and cooled at room temperature for 10 minutes. Finally 1 mL of an antioxidant stabilizer solution containing 10 mg gentisic acid sodium salt monohydrate and 20 mg ascorbic acid was added to the vial.
as §1, §2
Some of the N^1—N^2-Cys (N^1, N^2=independently any amino acid) model chelator peptides described in Example 7 were radiolabeled with ^188Re and screened in the cysteine challenge experiment described in Example 4. Two chelators (See FIG. 4) were compared directly to the control chelator containing no stabilizing sidechain. In these studies, the products were monitored for 6 hours. Results in Table 8 represent % Peptide complexed to ^188Re (ie. 100%−the amount of ^188Re cysteine) vs. time.

Bz-Gly-Gly-Glu-Cys-Ala.amide (Bz-GGECA-NH2; SMILES C[C@H](NC(=O)[C@H](CS)NC(=O)[C@H](CCC(=O)O)NC(=O)CNC(=O)CNC(=O)c1ccccc1)C(N)=O)
% Peptide Complexed to ^99mTc Initial [1]: 100% | % Peptide Complexed to ^99mTc 2 h [1]: 88.9% | % Peptide Complexed to ^99mTc 4 h [1]: 84.5% | % Peptide Complexed to ^99mTc 6 h [1]: 80.3% | % Peptide Complexed to ^99mTc 8 h [1]: 75.7% | % Peptide Complexed to ^99mTc 10 h [1]: 74.1% | % Peptide Complexed to ^99mTc 12 h [1]: 69.0% | % Peptide Complexed to ^188Re ([2]; 1.5 h): 94.0% | % Peptide Complexed to ^188Re ([2]; 3 h): 90.5% | % Peptide Complexed to ^188Re ([2]; 4.5 h): 89.7% | % Peptide Complexed to ^188Re ([2]; 6 h): 90.2% | % Peptide Complexed to ^188Re ([2]; N1-N2-Cys chelators, Initial): 98.0%

Bz-Gly-Gly-Gly-Cys-Ala.amide (Bz-GGGCA-NH2; SMILES C[C@H](NC(=O)[C@H](CS)NC(=O)CNC(=O)CNC(=O)CNC(=O)c1ccccc1)C(N)=O) [GGC1, control chelator, no stabilizing sidechain]
% Peptide Complexed to ^99mTc Initial [1]: 98.2% and 98.8% and 96.9% | % Peptide Complexed to ^99mTc 2 h [1]: 83.4% and 83.6% and 85.2% | % Peptide Complexed to ^99mTc 4 h [1]: 83.5% and 74.0% and 71.7% | % Peptide Complexed to ^99mTc 6 h [1]: 74.3% and 72.0% | % Peptide Complexed to ^99mTc 8 h [1]: 69.8% and 68.3% and 61.7% | % Peptide Complexed to ^99mTc 10 h [1]: 57.9% and 65.0% and 60.0% | % Peptide Complexed to ^99mTc 12 h [1]: 60.7% and 49.7% | % Peptide Complexed to ^188Re ([2]; 1.5 h): 80.1% | % Peptide Complexed to ^188Re ([2]; 3 h): 61.4% | % Peptide Complexed to ^188Re ([2]; 4.5 h): 50.2% | % Peptide Complexed to ^188Re ([2]; 6 h): 47.7% | % Peptide Complexed to ^188Re ([2]; N1-N2-Cys chelators, Initial): 100%
